Test system: metastatic (Stage IV) squamous or non-squamous NSCLC
Assay: Randomized first-line trial: zimberelimab vs domvanalimab + zimberelimab vs etrumadenant + domvanalimab + zimberelimab; cORR and PFS in ITT and biomarker selected subsets
Format: in vivo, human
Details: for Events: PFS events; for HR vs. Low: PFS; for PFS: median
Experimental: The potential treatment benefit of zimberelimab monotherapy vs. domvanalimab plus zimberelimab combination therapy vs. etrumadenant plus domvanalimab plus zimberelimab combination therapy was evaluated in 150 people as a first-line treatment for metastatic (Stage IV) squamous or non-squamous NSCLC. Participants were randomized 1:1:1 across the three study arms and treated until disease progression or loss of clinical benefit. Arm 1 received zimberelimab 360 mg IV Q3W (Arm 1=Z). Arm 2 received domvanalimab 15 mg/kg IV Q3W and zimberelimab 360 mg IV Q3W (Arm 2=DZ). Arm 3 received domvanalimab 15 mg/kg IV Q3W, zimberelimab 360 mg IV Q3W, and etrumadenant 150 mg PO QD (Arm 3=EDZ). Participants in the zimberelimab monotherapy arm (Arm 1) with confirmed progression had the option to cross over to the triplet arm (Arm 3).
EGFR and ALK mutational testing was not required for participants with squamous histology.
The co-primary endpoints for this study were objective response rate (ORR) and progression free survival (PFS). ORR was defined as the percentage of participants with a best overall response (BOR) of either compete response (CR) or partial response (PR). Participants with measurable disease at baseline who discontinued prior to their first scheduled scan were considered non-responders. PFS was defined from the time of randomization until first documentation of disease progression, or death from any cause, whichever occurred first. In addition to the co-primary endpoints, disease control rate (DCR, defined as the percentage of participants with a BOR of CR, PR, or stable disease (SD) for >6 months), duration of response (DoR, defined as the time from first documentation of disease response (CR or PR) until first documentation of confirmed progressive disease) and overall survival (OS, defined as the time from randomization until death due to any cause) were also evaluated as exploratory endpoints. Efficacy analyses were based on the intent-to-treat (ITT) population, which comprises all randomized participants.
As part of an exploratory analysis, clinical outcomes in biomarker selected subsets were investigated retrospectively. Central submission of adequate tumor tissue and central confirmation of PD-L1 status was not required for study enrollment. Thus, the number of biomarker evaluable patients (BEP) varied by biomarker and was less than the ITT population. Expression levels of CD155, CD226, and CD73 were measured in baseline tumor biopsy samples (e.g., formalin-fixed, paraffin-embedded tissue or freshly cut, serial unstained sections), along with baseline expression level of PD-L1. The baseline samples were archival tumor samples obtained ≤24 months prior to screening or fresh biopsy samples obtained prior to the first dose of treatment. PD-L1 expression level in the BEP subset was measured at a central lab using the Ventana SP263 IHC assay, while enrollment in the trial was based on PD-L1 expression ([…] TC or TPS) locally assessed by Ventana SP263 assay or PharmDx 22C3 assay. CD155, CD226 and CD73 expression levels were measured at a central lab as described in Example L. PD-L1, CD155, CD226, and CD73 expression at baseline are summarized in Table 3. The best predictive biomarker of activity in Arm 1 was CD155 (e.g., CD155 low). At least three biomarkers (e.g., PD-L1 high, CD155 high, and CD73 low) enrich for clinical activity of domvanalimab and there was an even greater enhancement in patients that fulfill two of the biomarkers (analyses not shown).
Without rescoring CD155 intensity (i.e., using the original values scored by the pathologist), expression was characterized by two different scoring algorithms—namely, % TC and % TC 2-3+. The coefficient of determination (R^2 value) was used to look at the variance between each approach and CD155 expression characterization by H-scores. While % TC 2-3+ and H-score are highly concordant (R^2 value of 0.94), less concordance was observed between % TC and H-score (R^2 value of 0.71). […]

[1] = CD155 High (2+ or 3+ % TC ≥ 40%)
[2] = CD155 Low (2+ or 3+ % TC < 40%)

B1: zimberelimab (antibody, chains of the INN, looked up, V domains shown)
VH: QLQLQESGPGLVKPSETLTLTCTVSADSISSTTYYWVWIRQPPGKGLEWIGSISYSGSTYYNPSLKSRVTVSVDTSKNQFSLKLNSVAATDTALYYCARHLGYNGRYLPFDYWGQGTLVTVSS
VL: QSALTQPASVSGSPGQSITISCTGTSSDVGFYNYVSWYQQHPGKAPELMIYDVSNRPSGVSDRFSGSKSGNTASLTISGLQAEDEADYYCSSYTSISTWVFGGGTKLTVL
notes: zimberelimab monotherapy 360 mg IV Q3W; anti-PD-1 antibody
Event Rate (BEP for CD155, unselected): 65%
cORR (BEP for CD155, unselected): 32%
cORR (CD73 High: ≥61% TC, BEP): 42%
cORR (CD73 Low: <61% TC, BEP): 12%
Event Rate [1]: 82%
cORR [1]: 18%
cORR (CD155 High: H-score ≥ 135, BEP): 24%
Event Rate [2]: 47%
cORR [2]: 47%
cORR (CD155 Low: H-score < 135, BEP): 41%
cORR (CD226 High: ≥4% IC, BEP): 39%
cORR (CD226 Low: <4% IC, BEP): 27%
PFS Events (%) (ITT population): (64%)
PFS Median (ITT population): 5.4 mos
PFS Events (ITT population, number of events, n = 50 per arm): 32
cORR (ITT population, planned interim analysis): 30%
cORR (PD-L1 High: ≥50% TC, BEP): 33%
cORR (PD-L1 Low: <50% TC, BEP): 27%
Events (CD73 High: ≥61% TC, BEP): 68%
Events (CD73 Low: <61% TC, BEP): 65%
Events (CD155 High: H-score ≥ 135, BEP): 82%
Events (CD155 Low: H-score < 135, BEP): 47%
Events (CD226 High: ≥4% IC, BEP): 69%
Events (CD226 Low: <4% IC, BEP): 73%
Events (PD-L1 High: ≥50% TC, BEP): 67%
Events (PD-L1 Low: <50% TC, BEP): 60%
HR vs. Low (CD73 High (≥61% TC) vs. Low within the arm): 0.63
HR vs. Low (CD155 High (H-score ≥ 135) vs. Low within the arm): 0.38
HR vs. Low (CD226 High (≥4% IC) vs. Low within the arm): 0.473
HR vs. Low (PD-L1 High (≥50% TC) vs. Low within the arm): 1.04
PFS (BEP for CD155, unselected): 5.4 mo
PFS (CD73 High: ≥61% TC, BEP): 9.6 mo
PFS (CD73 Low: <61% TC, BEP): 3.5 mo
PFS [1]: 3.5 mo
PFS (CD155 High: H-score ≥ 135, BEP): 3.5 mo
PFS [2]: 9.7 mo
PFS (CD155 Low: H-score < 135, BEP): 9.7 mo
PFS (CD226 High: ≥4% IC, BEP): 5.4 mo
PFS (CD226 Low: <4% IC, BEP): 2.7 mo
PFS (PD-L1 High: ≥50% TC, BEP): 5.7 mo
PFS (PD-L1 Low: <50% TC, BEP): 5.4 mo

From patent US20260266828A1, “BIOMARKERS FOR PREDICTING CANCER TREATMENT EFFICACY” (Arcus Biosciences, Inc., priority 2023, published 2026)
